The record followed here is publication PMC3923129.

One may read the Kd as the equilibrium constant for the complex coming apart.

In this data set the target is sigmaA-RNAP holoenzyme (housekeeping RNA polymerase) (Bacillus subtilis) (UniProt P20429+P37870+P37871+P06224). Kind of data set: EMSA.
Sequence of sigmaA-RNAP holoenzyme (housekeeping RNA polymerase) (Bacillus subtilis) (P20429 whole entry, chain 1 of 4): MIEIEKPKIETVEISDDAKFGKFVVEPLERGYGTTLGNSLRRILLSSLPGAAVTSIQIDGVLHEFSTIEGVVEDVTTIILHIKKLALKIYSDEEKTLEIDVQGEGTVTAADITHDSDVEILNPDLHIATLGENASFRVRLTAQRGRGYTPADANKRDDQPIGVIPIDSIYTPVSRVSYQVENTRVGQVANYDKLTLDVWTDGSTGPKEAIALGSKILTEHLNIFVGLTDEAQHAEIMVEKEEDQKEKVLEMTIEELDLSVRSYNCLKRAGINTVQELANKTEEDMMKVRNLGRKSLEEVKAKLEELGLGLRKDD
Sequence of sigmaA-RNAP holoenzyme (housekeeping RNA polymerase) (Bacillus subtilis) (P37870 whole entry, chain 2 of 4): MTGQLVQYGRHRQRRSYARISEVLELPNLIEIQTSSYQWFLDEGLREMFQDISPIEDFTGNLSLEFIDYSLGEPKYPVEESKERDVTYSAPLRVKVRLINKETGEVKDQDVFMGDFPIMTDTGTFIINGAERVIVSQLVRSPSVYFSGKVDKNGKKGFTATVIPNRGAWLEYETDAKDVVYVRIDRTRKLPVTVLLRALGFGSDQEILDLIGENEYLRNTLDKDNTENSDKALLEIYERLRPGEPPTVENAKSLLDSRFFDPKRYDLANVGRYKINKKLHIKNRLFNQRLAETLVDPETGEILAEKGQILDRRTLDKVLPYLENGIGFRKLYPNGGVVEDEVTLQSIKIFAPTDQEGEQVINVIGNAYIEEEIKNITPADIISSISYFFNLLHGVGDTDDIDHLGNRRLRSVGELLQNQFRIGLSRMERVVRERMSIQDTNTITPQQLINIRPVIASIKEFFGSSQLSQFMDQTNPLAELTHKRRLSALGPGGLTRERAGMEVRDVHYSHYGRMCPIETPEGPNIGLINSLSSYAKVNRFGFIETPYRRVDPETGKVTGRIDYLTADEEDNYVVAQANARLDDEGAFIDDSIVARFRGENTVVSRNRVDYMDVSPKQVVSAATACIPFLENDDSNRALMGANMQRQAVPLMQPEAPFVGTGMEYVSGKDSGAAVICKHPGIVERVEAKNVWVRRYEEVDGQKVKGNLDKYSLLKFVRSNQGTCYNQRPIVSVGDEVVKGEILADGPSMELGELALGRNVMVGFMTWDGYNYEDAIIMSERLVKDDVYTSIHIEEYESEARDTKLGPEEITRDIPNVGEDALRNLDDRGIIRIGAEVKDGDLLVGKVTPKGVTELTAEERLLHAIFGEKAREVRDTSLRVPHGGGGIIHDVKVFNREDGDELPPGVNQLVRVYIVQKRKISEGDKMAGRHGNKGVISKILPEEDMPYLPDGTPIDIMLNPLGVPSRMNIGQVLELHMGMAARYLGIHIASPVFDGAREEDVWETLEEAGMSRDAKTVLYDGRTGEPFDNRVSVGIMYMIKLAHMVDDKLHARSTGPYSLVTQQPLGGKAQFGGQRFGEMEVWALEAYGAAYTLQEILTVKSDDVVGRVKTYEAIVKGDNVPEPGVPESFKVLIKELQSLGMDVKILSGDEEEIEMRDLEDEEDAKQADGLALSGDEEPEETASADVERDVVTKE
Sequence of sigmaA-RNAP holoenzyme (housekeeping RNA polymerase) (Bacillus subtilis) (P37871 whole entry, chain 3 of 4): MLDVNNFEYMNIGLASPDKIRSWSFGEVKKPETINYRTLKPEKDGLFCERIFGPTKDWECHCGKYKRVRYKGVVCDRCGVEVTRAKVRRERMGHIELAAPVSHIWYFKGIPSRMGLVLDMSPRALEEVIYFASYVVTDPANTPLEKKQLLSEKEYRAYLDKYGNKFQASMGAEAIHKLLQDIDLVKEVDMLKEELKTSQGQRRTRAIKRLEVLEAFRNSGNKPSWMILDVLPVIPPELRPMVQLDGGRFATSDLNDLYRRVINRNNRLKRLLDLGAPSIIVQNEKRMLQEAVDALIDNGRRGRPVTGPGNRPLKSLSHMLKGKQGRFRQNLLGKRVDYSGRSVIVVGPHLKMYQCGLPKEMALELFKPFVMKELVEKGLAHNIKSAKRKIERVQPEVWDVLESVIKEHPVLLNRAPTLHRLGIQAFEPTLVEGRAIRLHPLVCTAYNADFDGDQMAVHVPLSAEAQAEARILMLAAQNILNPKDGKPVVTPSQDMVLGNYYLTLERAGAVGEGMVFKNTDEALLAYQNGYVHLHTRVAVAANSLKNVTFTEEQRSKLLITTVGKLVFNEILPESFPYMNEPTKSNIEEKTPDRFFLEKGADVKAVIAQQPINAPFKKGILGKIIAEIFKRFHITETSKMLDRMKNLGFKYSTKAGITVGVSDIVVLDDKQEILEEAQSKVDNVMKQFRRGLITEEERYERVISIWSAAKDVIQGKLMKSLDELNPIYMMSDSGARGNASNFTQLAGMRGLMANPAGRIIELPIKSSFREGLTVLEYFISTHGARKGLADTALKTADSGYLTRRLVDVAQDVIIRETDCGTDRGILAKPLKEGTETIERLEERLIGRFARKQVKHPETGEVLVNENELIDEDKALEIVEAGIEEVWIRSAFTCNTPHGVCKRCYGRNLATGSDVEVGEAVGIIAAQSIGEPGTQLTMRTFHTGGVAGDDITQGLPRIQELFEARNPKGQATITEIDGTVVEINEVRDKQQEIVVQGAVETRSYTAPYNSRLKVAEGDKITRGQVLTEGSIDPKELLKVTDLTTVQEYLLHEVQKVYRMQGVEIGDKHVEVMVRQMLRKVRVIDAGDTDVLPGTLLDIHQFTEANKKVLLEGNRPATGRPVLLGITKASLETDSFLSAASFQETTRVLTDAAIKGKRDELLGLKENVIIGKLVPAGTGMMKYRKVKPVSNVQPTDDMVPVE
Sequence of sigmaA-RNAP holoenzyme (housekeeping RNA polymerase) (Bacillus subtilis) (P06224 whole entry, chain 4 of 4): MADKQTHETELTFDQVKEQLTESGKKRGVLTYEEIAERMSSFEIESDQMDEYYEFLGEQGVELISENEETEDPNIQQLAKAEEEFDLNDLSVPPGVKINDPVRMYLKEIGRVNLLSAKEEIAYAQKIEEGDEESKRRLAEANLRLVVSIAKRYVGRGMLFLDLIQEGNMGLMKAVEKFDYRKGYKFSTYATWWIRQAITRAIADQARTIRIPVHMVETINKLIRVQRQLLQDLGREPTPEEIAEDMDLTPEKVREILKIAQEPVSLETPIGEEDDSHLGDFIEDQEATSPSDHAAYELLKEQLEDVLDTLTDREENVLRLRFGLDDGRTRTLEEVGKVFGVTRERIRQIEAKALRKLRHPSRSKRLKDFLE

With 6S-1 RNA, the Kd was 100 nM. That is a sub-micromolar value.
The result for 6S-2 RNA reads 135 nM.
